Results: patent US10472401B2, “Peptides and combination of peptides for use in immunotherapy against ovarian cancer and other cancers” (immatics biotechnologies GmbH, priority 2015, dated 2019)

Target: HLA-A*02:01 (Homo sapiens, UniProt P04439, D140Y/D185E/D98H/E176V/E277Q/G131W/G231S/I119V/I121R/I166T/I218V/L300P/L318F/N151K/N90K/P208A/P217A/Q86G/Q94H/R138H/R169H/T345S)
Assay: MHC binding assay (UV-ligand exchange, ELISA of stabilized MHC complexes)
Details: MHC class I binding score; binding to HLA-A*02:01 ranged by peptide exchange yield (UV-ligand exchange, ELISA)
Method in brief: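 Binding scored as exchange yield, detected via β2m of stabilized complexes in an HRP/TMB ELISA read at 450 nm after streptavidin capture of 100-fold diluted monomers for 1 h at 37 °C. Complexes came from UV irradiation cleaving a photolabile peptide, exchanged for the candidate.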

Substance	Peptide exchange
285 (QLLHVGVTV; listed as Homo sapiens) [compound 285]	″+++″ (≥50% = +++)
286 (YLFPGIPEL; listed as Homo sapiens) [compound 286]	″+++″ (≥50% = +++)
287 (FLNEFFLNV; listed as Homo sapiens) [compound 287]	″+++″ (≥50% = +++)
288 (NLINEINGV; listed as Homo sapiens) [compound 288]	″+++″ (≥50% = +++)
289 (VLLEIEDLQV; listed as Homo sapiens) [compound 289]	″++++″ (≥75% = ++++)
295 (VLDRESPNV; listed as Homo sapiens) [compound 295]	″+++″ (≥50% = +++)
296 (FMEGAIIYV; listed as Homo sapiens) [compound 296]	″+++″ (≥50% = +++)
297 (VLADIELAQA; listed as Homo sapiens) [compound 297]	″+++″ (≥50% = +++)
298 (VMITKLVEV; listed as Homo sapiens) [compound 298]	″+++″ (≥50% = +++)
299 (YLLETSGNL; listed as Homo sapiens) [compound 299]	″+++″ (≥50% = +++)
300 (ALLGQTFSL; listed as Homo sapiens) [compound 300]	″+++″ (≥50% = +++)
301 (FLVEDLVDSL; listed as Homo sapiens) [compound 301]	″+++″ (≥50% = +++)
302 (ALLQEGEVYSA; listed as Homo sapiens) [compound 302]	″+++″ (≥50% = +++)
303 (AILPQLFMV; listed as Homo sapiens) [compound 303]	″++++″ (≥75% = ++++)
304 (MTLGQIYYL; listed as Homo sapiens) [compound 304]	″+++″ (≥50% = +++)
305 (SIANFSEFYV; listed as Homo sapiens) [compound 305]	″++++″ (≥75% = ++++)
306 (ALVNVQIPL; listed as Homo sapiens) [compound 306]	″+++″ (≥50% = +++)
307 (ALPVSLPQI; listed as Homo sapiens) [compound 307]	″+++″ (≥50% = +++)

Substance	Peptide exchange
308 (SQYSGQLHEV; listed as Homo sapiens) [compound 308]	″+++″ (≥50% = +++)
309 (GLFDGVPTTA; listed as Homo sapiens) [compound 309]	″+++″ (≥50% = +++)
310 (FLVDTPLARA; listed as Homo sapiens) [compound 310]	″++++″ (≥75% = ++++)
311 (RLYTGMHTV; listed as Homo sapiens) [compound 311]	″+++″ (≥50% = +++)
312 (IISDLTIAL; listed as Homo sapiens) [compound 312]	″+++″ (≥50% = +++)
313 (VLFDDELLMV; listed as Homo sapiens) [compound 313]	″+++″ (≥50% = +++)
314 (ALIAEGIALV; listed as Homo sapiens) [compound 314]	″+++″ (≥50% = +++)
315 (YLQDVVEQA; listed as Homo sapiens) [compound 315]	″+++″ (≥50% = +++)
316 (ILLERLWYV; listed as Homo sapiens) [compound 316]	″+++″ (≥50% = +++)
317 (SLAALVVHV; listed as Homo sapiens) [compound 317]	″+++″ (≥50% = +++)
318 (GLINTGVLSV; listed as Homo sapiens) [compound 318]	″++″ (≥20% = ++)
320 (KMFEFVEPLL; listed as Homo sapiens) [compound 320]	″++++″ (≥75% = ++++)
321 (GLFEDVTQPGILL; listed as Homo sapiens) [compound 321]	″++++″ (≥75% = ++++)
322 (TLMTSLPAL; listed as Homo sapiens) [compound 322]	″+++″ (≥50% = +++)
324 (FLYDEIEAEV; listed as Homo sapiens) [compound 324]	″+++″ (≥50% = +++)
325 (FIMPATVADATAV; listed as Homo sapiens) [compound 325]	″+++″ (≥50% = +++)
326 (FLPEALDFV; listed as Homo sapiens) [compound 326]	″+++″ (≥50% = +++)
327 (GLAPFTEGISFV; listed as Homo sapiens) [compound 327]	″+++″ (≥50% = +++)

Results, then the substance that gave them:

Peptide exchange	Substance
″+++″ (≥50% = +++)	328 (ALNDQVFEI; listed as Homo sapiens) [compound 328]
″++++″ (≥75% = ++++)	329 (FLVTLNNVEV; listed as Homo sapiens) [compound 329]
″+++″ (≥50% = +++)	330 (QLALKVEGV; listed as Homo sapiens) [compound 330]
″+++″ (≥50% = +++)	331 (KVDTVWVNV; listed as Homo sapiens) [compound 331]
″+++″ (≥50% = +++)	332 (YLISELEAA; listed as Homo sapiens) [compound 332]
″++″ (≥20% = ++)	333 (FLPDANSSV; listed as Homo sapiens) [compound 333]
″+++″ (≥50% = +++)	334 (TLTKVLVAL; listed as Homo sapiens) [compound 334]
″+++″ (≥50% = +++)	335 (YSLSSVVTV; listed as Homo sapiens) [compound 335]
″+++″ (≥50% = +++)	336 (ILLTAIVQV; listed as Homo sapiens) [compound 336]
″++++″ (≥75% = ++++)	337 (HLLSELEAAPYL; listed as Homo sapiens) [compound 337]
″++++″ (≥75% = ++++)	339 (GLWEIENNPTVKA; listed as Homo sapiens) [compound 339]
″++++″ (≥75% = ++++)	340 (ALLSMTFPL; listed as Homo sapiens) [compound 340]
″+++″ (≥50% = +++)	341 (SQIALNEKLVNL; listed as Homo sapiens) [compound 341]
″+++″ (≥50% = +++)	342 (HIYDKVMTV; listed as Homo sapiens) [compound 342]
″+++″ (≥50% = +++)	343 (SLLEVNEESTV; listed as Homo sapiens) [compound 343]
″+++″ (≥50% = +++)	344 (YLQDQHLLLTV; listed as Homo sapiens) [compound 344]
″+++″ (≥50% = +++)	345 (VIWKALIHL; listed as Homo sapiens) [compound 345]
″+++″ (≥50% = +++)	346 (LLDSKVPSV; listed as Homo sapiens) [compound 346]
″++++″ (≥75% = ++++)	347 (SLFKHDPAAWEA; listed as Homo sapiens) [compound 347]
″++++″ (≥75% = ++++)	348 (ILLDVKTRL; listed as Homo sapiens) [compound 348]
″++++″ (≥75% = ++++)	349 (SLTEYLQNV; listed as Homo sapiens) [compound 349]

Peptide exchange	Substance
″+++″ (≥50% = +++)	350 (ALLDVTHSELTV; listed as Homo sapiens) [compound 350]
″+++″ (≥50% = +++)	351 (SLIPNLRNV; listed as Homo sapiens) [compound 351]
″+++″ (≥50% = +++)	352 (SLLELLHIYV; listed as Homo sapiens) [compound 352]
″++″ (≥20% = ++)	353 (YLFEMDSSL; listed as Homo sapiens) [compound 353]
″++″ (≥20% = ++)	354 (LILEGVDTV; listed as Homo sapiens) [compound 354]
″++″ (≥20% = ++)	355 (SIQQSIERLLV; listed as Homo sapiens) [compound 355]
″+++″ (≥50% = +++)	356 (KLLGKLPEL; listed as Homo sapiens) [compound 356]
″+++″ (≥50% = +++)	357 (SMHDLVLQV; listed as Homo sapiens) [compound 357]
″++++″ (≥75% = ++++)	358 (ALDEYTSEL; listed as Homo sapiens) [compound 358]
″+++″ (≥50% = +++)	359 (YLLPESVDL; listed as Homo sapiens) [compound 359]
″+++″ (≥50% = +++)	361 (ALYELEGTTV; listed as Homo sapiens) [compound 361]
″+++″ (≥50% = +++)	362 (TLYGLSVLL; listed as Homo sapiens) [compound 362]
″++″ (≥20% = ++)	363 (KVLDVSDLESV; listed as Homo sapiens) [compound 363]
″+++″ (≥50% = +++)	364 (LLQNEQFEL; listed as Homo sapiens) [compound 364]
″+++″ (≥50% = +++)	365 (YVIDQGETDVYV; listed as Homo sapiens) [compound 365]
″+++″ (≥50% = +++)	366 (RLLDMGETDLML; listed as Homo sapiens) [compound 366]
″+++″ (≥50% = +++)	367 (SLQNHNHQL; listed as Homo sapiens) [compound 367]
″+++″ (≥50% = +++)	369 (GLFPEHLIDV; listed as Homo sapiens) [compound 369]
″+++″ (≥50% = +++)	370 (SLLQDLVSV; listed as Homo sapiens) [compound 370]
″++++″ (≥75% = ++++)	371 (FLQAHLHTA; listed as Homo sapiens) [compound 371]
